One data set in a line: I-V relationship. The conditions noted are these: glycan lost; control: wild type.
Data set [1] is described as follows: cell surface biotinylation, Western blot. The settings on record: glycan lost; control: wild type. In general terms: In western blotting, separated proteins are transferred to a membrane and probed.

From paper PMC3932411 come the findings set out here.

B1: TRPM5: N932Q (protein)
parent chain: MQDVQGPRPGSPGDAEDRRELGLHRGEVNFGGSGKKRGKFVRVPSGVAPSVLFDLLLAEWHLPAPNLVVSLVGEEQPFAMKSWLRDVLRKGLVKAAQSTGAWILTSALRVGLARHVGQAVRDHSLASTSTKVRVVAVGMASLGRVLHRRILEEAQEDFPVHYPEDDGGSQGPLCSLDSNLSHFILVEPGPPGKGDGLTELRLRLEKHISEQRAGYGGTGSIEIPVLCLLVNGDPNTLERISRAVEQAAPWLILVGSGGIADVLAALVNQPHLLVPKVAEKQFKEKFPSKHFSWEDIVRWTKLLQNITSHQHLLTVYDFEQEGSEELDTVILKALVKACKSHSQEPQDYLDELKLAVAWDRVDIAKSEIFNGDVEWKSCDLEEVMVDALVSNKPEFVRLFVDNGADVADFLTYGRLQELYRSVSRKSLLFDLLQRKQEEARLTLAGLGTQQAREPPAGPPAFSLHEVSRVLKDFLQDACRGFYQDGRPGDRRRAEKGPAKRPTGQKWLLDLNQKSENPWRDLFLWAVLQNRHEMATYFWAMGQEGVAAALAACKILKEMSHLETEAEAARATREAKYERLALDLFSECYSNSEARAFALLVRRNRCWSKTTCLHLATEADAKAFFAHDGVQAFLTRIWWGDMAAGTPILRLLGAFLCPALVYTNLITFSEEAPLRTGLEDLQDLDSLDTEKSPLYGLQSRVEELVEAPRAQGDRGPRAVFLLTRWRKFWGAPVTVFLGNVVMYFAFLFLFTYVLLVDFRPPPQGPSGPEVTLYFWVFTLVLEEIRQGFFTDEDTHLVKKFTLYVGDNWNKCDMVAIFLFIVGVTCRMLPSAFEAGRTVLAMDFMVFTLRLIHIFAIHKQLGPKIIVVERMMKDVFFFLFFLSVWLVAYGVTTQALLHPHDGRLEWIFRRVLYRPYLQIFGQIPLDEIDEARVNCSTHPLLLEDSPSCPSLYANWLVILLLVTFLLVTNVLLMNLLIAMFSYTFQVVQGNADMFWKFQRYNLIVEYHERPALAPPFILLSHLSLTLRRVFKKEAEHKREHLERDLPDPLDQKVVTWETVQKENFLSKMEKRRRDSEGEVLRKTAHRVDFIAKYLGGLREQEKRIKCLESQINYCSVLVSSVADVLAQGGGPRSSQHCGEGSQLVAADHRGGLDGWEQPGAGQPPSDT
B1: the “other: channel biophysical properties” value in the data set “I-V relationship” was “no change”. For the same protein, in data set [1], the localisation_or_trafficking entry was “no change”.
